Assay results: PMC6549140, “ATP hydrolysis by KaiC promotes its KaiA binding in the cyanobacterial circadian clock system” (Life Science Alliance, 2019)
“And” between values parts separate entries of the source, which are not always exact repeats. Equal values may be shown once. Each block holds one molecule with its values, some of them ahead of it.

Experiments:
[1] = target: T1, CI hexamer (hexameric CI domain M1–S253) (Thermosynechococcus vestitus, UniProt Q79V60); test: native mass spectrometry after trypsin digestion; format: binding; conditions: KaiCAA incubated with 1 mM ATP, 37°C, 5 h; 150 mM ammonium acetate; 0.02 mg/ml trypsin up to 60 min
T1 construct: gene kaiC; CI domain M1-S253 made by trypsin digestion of KaiCAA (the S431A/T432A sites lie outside), hexamer

[2] = target: CI domain (M1–S253) of KaiCAA, tryptic fragment, hexamer (T. elongatus BP-1); test: native MS; KaiCAA hexamer (1 mM ATP, 5 h, 37°C) exchanged into 150 mM ammonium acetate and digested with 0.02 mg/ml trypsin for 0, 30 and 60 min, analysed directly
[3] = target: KaiCAA (KaiC with Ser431 and Thr432 both substituted with alanine), hexamer (T. elongatus BP-1) (UniProt Q79V60); test: native MS; KaiC mutant (20 uM) alone, hexamerised with 1 mM ATP, 5 h at 37°C, exchanged into 150 mM ammonium acetate pH 6.8, nanoflow ESI
[4] = target: KaiCAA (KaiC with Ser431 and Thr432 both substituted with alanine), hexamer (T. elongatus BP-1) (UniProt Q79V60); test: native MS; KaiC mutant (20 uM) alone, hexamerised with 1 mM AMPPNP, 5 h at 37°C, exchanged into 150 mM ammonium acetate pH 6.8, nanoflow ESI
[5] = target: KaiCDD (KaiC with Ser431 and Thr432 both substituted with aspartate), hexamer (T. elongatus BP-1) (UniProt Q79V60); test: native MS; KaiC mutant (20 uM) alone, hexamerised with 1 mM ATP, 5 h at 37°C, exchanged into 150 mM ammonium acetate pH 6.8, nanoflow ESI
[6] = target: KaiCDD (KaiC with Ser431 and Thr432 both substituted with aspartate), hexamer (T. elongatus BP-1) (UniProt Q79V60); test: native MS; KaiC mutant (20 uM) alone, hexamerised with 1 mM AMPPNP, 5 h at 37°C, exchanged into 150 mM ammonium acetate pH 6.8, nanoflow ESI
[7] = target: KaiC_(AA/E77Q) (KaiCAA with the catalytic glutamate Glu77 of the CI ATPase domain substituted by glutamine), hexamer (T. elongatus BP-1) (UniProt Q79V60); test: native MS; KaiC mutant (20 uM) alone, hexamerised with 1 mM ATP, 5 h at 37°C, exchanged into 150 mM ammonium acetate pH 6.8, nanoflow ESI
[8] = target: KaiC_(AA/E77Q) (KaiCAA with the catalytic glutamate Glu77 of the CI ATPase domain substituted by glutamine), hexamer (T. elongatus BP-1) (UniProt Q79V60); test: native MS; 6:3 mixture of KaiC mutant (20 uM) and KaiA (10 uM), 1 mM ATP, 5 h at 37°C, 150 mM ammonium acetate pH 6.8, nanoflow ESI
[9] = target: KaiCDD (KaiC with Ser431 and Thr432 both substituted with aspartate), hexamer (T. elongatus BP-1) (UniProt Q79V60); test: as above
[10] = target: KaiCAA (KaiC with Ser431 and Thr432 both substituted with alanine), hexamer (T. elongatus BP-1) (UniProt Q79V60); test: as above
[11] = target: KaiCDD (KaiC with Ser431 and Thr432 both substituted with aspartate), hexamer (T. elongatus BP-1) (UniProt Q79V60); test: native MS; 6:3 mixture of KaiC mutant (20 uM) and KaiA (10 uM), 1 mM AMPPNP, 5 h at 37°C, 150 mM ammonium acetate pH 6.8, nanoflow ESI
[12] = target: KaiCAA (KaiC with Ser431 and Thr432 both substituted with alanine), hexamer (T. elongatus BP-1) (UniProt Q79V60); test: as above
[13] = target: KaiCAA (KaiC with Ser431 and Thr432 both substituted with alanine), hexamer (T. elongatus BP-1) (UniProt Q79V60); test: native MS; 6:1, 6:3, 6:6 and 6:9 mixtures of KaiCAA and KaiA (up to excess KaiA), 1 mM ATP, 5 h at 37°C, nanoflow ESI

T1 sequence (Q79V60 1-253): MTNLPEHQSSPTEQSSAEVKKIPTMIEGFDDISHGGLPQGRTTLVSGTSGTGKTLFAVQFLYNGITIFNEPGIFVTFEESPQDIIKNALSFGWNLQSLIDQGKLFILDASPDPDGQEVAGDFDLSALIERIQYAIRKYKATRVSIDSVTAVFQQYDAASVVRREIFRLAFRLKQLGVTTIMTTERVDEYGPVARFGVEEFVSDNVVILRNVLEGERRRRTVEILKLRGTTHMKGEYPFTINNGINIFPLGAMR

Molecule: Nc1ncnc2c1ncn2[C@@H]1O[C@H](COP(=O)(O)OP(=O)(O)OP(=O)(O)O)[C@@H](O)[C@H]1O [ATP]
native mass spectrometry after trypsin digestion [1]: the hexameric CI domain (M1–S253) containing six ATP molecules

stoichiometry N (subunits in the oligomer) [2]: 6
Molecule: CI domain (M1–S253) of KaiCAA, tryptic fragment, hexamer (domain or fragment)

stoichiometry N (subunits in the oligomer) [3]: 6
stoichiometry N (subunits in the oligomer) [4]: 6
Molecule: KaiCAA (KaiC with Ser431 and Thr432 both substituted with alanine), hexamer (from UniProt Q79V60 1-518) (natural protein)

stoichiometry N (subunits in the oligomer) [5]: 6
stoichiometry N (subunits in the oligomer) [6]: 6
Molecule: KaiCDD (KaiC with Ser431 and Thr432 both substituted with aspartate), hexamer (from UniProt Q79V60 1-518) (natural protein)

stoichiometry N (subunits in the oligomer) [7]: 6
Molecule: KaiC_(AA/E77Q) (KaiCAA with the catalytic glutamate Glu77 of the CI ATPase domain substituted by glutamine), hexamer (from UniProt Q79V60 1-518) (natural protein)

stoichiometry N (KaiA molecules per KaiC hexamer) [8]: 2
stoichiometry N (KaiA molecules per KaiC hexamer) [9]: 2
stoichiometry N (KaiA molecules per KaiC hexamer) [10]: 2
stoichiometry N (KaiA molecules per KaiC hexamer) [11]: 2
stoichiometry N (KaiA molecules per KaiC hexamer) [12]: 2
stoichiometry N (KaiA molecules per KaiC hexamer) [13]: 2 and 4
B1: KaiA (natural protein)
chain: MAQSTALTICGLVYSPAIGQELVRLHTSDIDELVYFSSEREFCNYLEARRNSIACLILEWGEGTPQIITYLHHSATLLPAILIFPAAPAPPPAGPHYHIAEVILTTDQLDQLNRQIEEAITGFVKLCPGCAVPPHVLFRLPALKESSNVDPQHRLSQKLKERLGYLGVYYKRDTAFFFRRMSPADKRKLLDELRSIYRTIVLEYFNTDAKVNERIDEFVSKAFFADISVSQVLEIHVELMDTFSKQLKLEGRSEDILLDYRLTLIDVIAHLCEMYRRSIPREV
